We go through 13 molecules from article doi:10.1101/2021.06.03.446896.

Values joined by “and” are separate entries in the source; they are usually repeats but may differ in a detail not shown here. Identical values can stand only once.

Test in all cases: EMSA
Series [1] addresses T1, dMi-2 WT (UniProt O97159 1-1982).
For series [2], the target named is T1, dMi-2 WT. This is another data set of the same source.
A further series concerns the target T2, dMi-2 (118-238) (UniProt O97159 118-238).
T2 sequence: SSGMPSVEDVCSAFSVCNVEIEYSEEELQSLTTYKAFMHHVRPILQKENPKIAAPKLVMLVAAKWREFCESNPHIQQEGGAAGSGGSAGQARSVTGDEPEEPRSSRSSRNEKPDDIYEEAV

T1 sequence (O97159 whole entry): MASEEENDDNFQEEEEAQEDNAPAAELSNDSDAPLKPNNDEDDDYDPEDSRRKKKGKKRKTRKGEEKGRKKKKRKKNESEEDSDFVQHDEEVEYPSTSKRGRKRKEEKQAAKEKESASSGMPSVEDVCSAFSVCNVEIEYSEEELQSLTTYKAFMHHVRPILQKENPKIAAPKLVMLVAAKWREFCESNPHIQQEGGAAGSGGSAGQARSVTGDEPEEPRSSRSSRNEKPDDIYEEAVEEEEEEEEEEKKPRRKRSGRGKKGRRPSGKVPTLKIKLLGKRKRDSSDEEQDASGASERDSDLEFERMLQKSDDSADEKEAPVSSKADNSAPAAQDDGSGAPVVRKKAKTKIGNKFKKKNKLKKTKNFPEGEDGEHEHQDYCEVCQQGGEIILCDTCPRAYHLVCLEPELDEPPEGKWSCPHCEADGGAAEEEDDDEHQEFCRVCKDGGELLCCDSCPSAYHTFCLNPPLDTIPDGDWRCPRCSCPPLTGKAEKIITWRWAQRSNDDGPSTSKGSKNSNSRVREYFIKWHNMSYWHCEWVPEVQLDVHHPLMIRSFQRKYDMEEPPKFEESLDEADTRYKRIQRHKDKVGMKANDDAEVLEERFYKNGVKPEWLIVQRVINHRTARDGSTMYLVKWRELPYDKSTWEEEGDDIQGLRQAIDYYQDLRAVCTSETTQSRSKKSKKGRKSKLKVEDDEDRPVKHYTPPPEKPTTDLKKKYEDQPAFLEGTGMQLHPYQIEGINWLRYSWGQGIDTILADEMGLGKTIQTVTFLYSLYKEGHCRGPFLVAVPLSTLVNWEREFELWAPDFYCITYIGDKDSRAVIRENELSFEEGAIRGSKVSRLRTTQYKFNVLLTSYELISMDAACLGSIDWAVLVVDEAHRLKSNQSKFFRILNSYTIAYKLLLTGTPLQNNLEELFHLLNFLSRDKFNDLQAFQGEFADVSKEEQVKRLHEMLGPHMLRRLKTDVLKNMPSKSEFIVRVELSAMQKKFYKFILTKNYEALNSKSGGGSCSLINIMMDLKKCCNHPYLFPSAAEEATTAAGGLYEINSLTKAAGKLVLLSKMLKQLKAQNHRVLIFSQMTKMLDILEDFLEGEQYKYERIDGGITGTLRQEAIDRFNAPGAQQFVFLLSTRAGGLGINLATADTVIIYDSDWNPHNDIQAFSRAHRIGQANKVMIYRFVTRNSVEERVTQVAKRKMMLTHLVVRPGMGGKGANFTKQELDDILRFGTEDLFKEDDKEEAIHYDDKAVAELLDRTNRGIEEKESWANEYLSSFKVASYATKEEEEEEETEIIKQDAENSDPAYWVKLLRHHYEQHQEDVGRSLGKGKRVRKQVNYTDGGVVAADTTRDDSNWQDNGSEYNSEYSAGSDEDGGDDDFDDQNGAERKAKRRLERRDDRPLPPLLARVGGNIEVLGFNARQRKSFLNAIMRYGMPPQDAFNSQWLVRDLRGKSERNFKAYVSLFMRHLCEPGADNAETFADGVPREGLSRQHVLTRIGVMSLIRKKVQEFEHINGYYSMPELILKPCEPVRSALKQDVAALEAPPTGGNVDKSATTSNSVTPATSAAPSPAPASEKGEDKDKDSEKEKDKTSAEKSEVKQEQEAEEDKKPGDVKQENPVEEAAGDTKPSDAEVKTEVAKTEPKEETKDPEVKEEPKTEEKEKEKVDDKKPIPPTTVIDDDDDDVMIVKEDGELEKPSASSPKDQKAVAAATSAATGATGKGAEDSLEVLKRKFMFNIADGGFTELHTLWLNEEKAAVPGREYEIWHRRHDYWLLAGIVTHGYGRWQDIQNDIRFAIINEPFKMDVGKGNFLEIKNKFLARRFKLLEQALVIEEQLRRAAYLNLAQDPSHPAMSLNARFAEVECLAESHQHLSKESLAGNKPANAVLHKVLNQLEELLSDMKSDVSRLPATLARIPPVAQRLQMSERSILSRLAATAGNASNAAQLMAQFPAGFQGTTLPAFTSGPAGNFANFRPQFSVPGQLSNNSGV

What is called Kd is the constant that tells how readily two partners part at equilibrium. Turning to GAGAGAGAGAGAGAGAGAGAGAGAGAGAGAGAGAGAGAGA (ssRNA) [(GA)20 RNA], in the series with dMi-2 WT [1], the dissociation constant Kd was 70 nM and 80 nM.

B1: Pgant35a #3 RNA (ssRNA)
RNA: GUCAUUGGUGCACGCGAGGCCGUGGGCGAUGUGCUCGUCUUCCUCGACUCGCAUAUCGAGGUCAAUCAGCAGUGGCUGGAGCCGCUGCUGCGCCUCAUCA
Take B1: in the series with dMi-2 WT [1], the Kd is 630 ± 280 nM.

B2: Hsp70Aa #2 RNA (ssRNA)
RNA: GAGGACAUGAAGCACUGGCCUUUCAAGGUUGUAAGCGACGGCGGAAAGCCCAAGAUCGGGGUGGAGUAUAAGGGUGAGUCCAAGAGAUUUGCCCCCGAGG
Take B2: in the series with dMi-2 WT [2], the binding result is “binds”.

B3: Pgant35a #4 RNA (ssRNA)
RNA: CUGCAUGUGCCGGGCGAGGAGUCCAAGAAGUCGGCGGCAGCGCCCAUCUUUCAGCCUUGGCACUCGCGAAAACGUAACUAUGUCGACACAUUCCAGCUGC
Consider B3, for which the binding result with dMi-2 WT [2] is reported as “binds”.
Molecule AAAAAAGGGGAAAAGGGGAAAAGGGGAAAAGGGGAAAAAA (structured_RNA) [(G4A4)4 RNA] registered a Kd in the series with dMi-2 WT [1] of 80 nM.
With CCUACGGACUGGACAAGAACCUCAAGGGUGAGCGCAAUGU (ssRNA) [Hsp70Aa #6 RNA], binding with dMi-2 WT [1] was put at a Kd of 310 ± 100 nM. For the same molecule, the binding result with dMi-2 (118-238) is recorded as “no binding”.

B4: Pgant35a #5 RNA (ssRNA)
RNA: AAGUGCCACGAGAUGCUCGGCGAUCAGCAGUGGCGGCACACCCGCAACGCCAACAGUCCCGUCUACAACAUGGCCAAAGGCACCUGCCUCCGGGCAGCUG
B4: the binding result with dMi-2 WT [2] is reported as “binds”.

B5: Pgant35a #2 RNA (ssRNA)
RNA: UCUUCCGGGCGAUCCCAGACACUCGGCACAAGGUGUGCGAUCGCCAGGAGACCACGGAAGCGGAAAAUCUGCCCCAGGCCUCCAUAGUCAUGUGCUUCUA
For B5, the binding result with dMi-2 WT [2] was “binds”.

B6: Pgant35a #1 RNA (ssRNA)
RNA: UCGGCAGGAUGGAGGAUCGACGAAGGGAACGCAACGCCACGGGCCGAGCUGAGCUACCAGGCCAGGGUCACCGUCGGAUGCACUCCAAAUGCCAGCAUUA
For the molecule B6, the binding result with dMi-2 WT [2] is given as “binds”.

B7: Hsp70Aa #5 RNA (ssRNA)
RNA: GCAGGCCGAGAUUGAUCGCAUGGUGAACGAGGCUGAAAAGUACGCCGACGAGGACGAGAAGCAUCGCCAGCGAAUAACCUCUAGAAAUGCCCUGGAGAGC
On to B7, for which, in the series with dMi-2 WT [2], the binding result is given as “binds”.

B8: Hsp70Aa dsDNA (dsDNA)
DNA 1: not shown
DNA 2: not shown
On to B8, for which binding in the series with dMi-2 WT [1] was characterised by a dissociation constant (Kd) of 820 ± 100 nM.

B9: Hsp70Aa #1 RNA (ssRNA)
RNA: CUCACACACAAUGCCUGCUAUUGGAAUCGAUCUGGGCACCACCUACUCCUGCGUGGGUGUCUACCAACAUGGCAAGGUGGAGAUUAUCGCCAACGACCAG
B9: in the series with dMi-2 WT [2], the binding result is listed as “binds”.

B10: Hsp70Aa dsRNA (dsRNA)
RNA 1: not shown
RNA 2: not shown
B10: the Kd in the series with dMi-2 WT [1] is 860 ± 100 nM.
